These results are taken from the DeepSol protein solubility set.

A short description of the series: soluble on expression in E. coli; label from the status in PepcDB or PDB records.
“MSLEQNPVDLDSLTLVNEDELETSVALDNMARRARNGCNEQLKVLCHRIEYLFESKREVNEHNNPLEPRQLVACFSEGLEKLSLDIKARLIILKLFEREVMAETGYLVSEANKVLIDAGVLPEMKSAPIAPAHKPGSRSLANQGNDNVMPTAGNAGVHSNDQVFGLLQELLVTMRGMQARPGDGASDVASEAPMAVMQNGVPYMNGAPLANAASVHQVNSDDLLGVLNRLQRVERSLGEDEGEERADLKTDLSELLDNEHGEAIHALDQADDDVINLVALLFDFILDDEGLPSDIKALLGRLQIPLLKVAIMDKAFFNNDNHEARLLLNMLARAGSQWDPHLGIQDDLYQRINHAVHRIIDDYEDDASLFSSLLQEFQQFFDSQKTRSDRVEQRVREAEEGKARAEQARREVVTVLDNRMAGRQLPDVVVRLLRQGWQQALYLTWLHEGENSPLWQQQVKVVDAVVWSVLEHRDQDALEKLKTLSPKLLKTLHEGLTKINHDAMETKQLLVKFRDVHHRLLKGLQTERVAVEPELPAQRAQPETAPELPENHFLVKKCSQLAPGQWIEIQDNDEPRRAKLAANIRAGVKIVFTNRRGIKVQEYSAYTLAVALHNGAVKLIDEGALFDRALEAVIGDLRRMQGNEGHHHHHH”: the “soluble on expression in E. coli” value is on record as “not soluble”.
To “MSLESGFLEDAQANLTLRNFYFNRNFTNPTKAQGKAEEWTQSFILDAKSGFTQGTVGFGMDVLGLYSLKLDGGKGTGGTQLLPLDHDGRPADNFGRLGVAFKARLSQTEVKVGEWMPVLPILRSDDGRSLPQTFRGGQITSKEIAGLTLYGGQFRANSPRDDSSMSDMSMFGKAAFTSDRFNFQGAEYAFNDKRTQIALWNAQLKDIYSQQFINLIHSQPLGDWTLGANLGFFYGKEDGSARAGDMENRTWSGLFSAKYGGNTFYVGLQKLTGDSAWMRVNGTSGGTLANDSYNASYDNAKEKSWQVRHDYNFAALGVPGLTLMNRYISGSNVHTATVSDGKEWGRESEVAYTVQSGTLKNLNLKWRNSTMRRDFSNNEFDENRLIISYPLSLLEGHHHHHH” belongs “soluble”.
For the sequence “MSLETSRNLSNFFDVSADLLSISNMQGRFVKVNRAWETALGYPIEALEGVPFLPLLHPEDQQSTRVQINRIEVDDEVNGFVNRYRRADGSYCQLEWRARRCDDLVFGVARDVTERLRIQAEMAEARDAAEAANRAKNDFLANMSHEIRTPLNGVIALAAALDETPLTSKQAEMVAMIRRSGETLERLVSDILDVSKIEAGQMTLQPQAFDLGALVDGLLDVTRLRAKEKGVAVRLERSPTAAGGFLGDSVRIGQVLSNLFSNAVKFTDQGEVIVRVDVEEAGNGQAARLFVEVEDTGVGFDAEKAEMIFQRFNQADSTITRRFGGSGLGLSISKTLVEMMGGEITAQSSPGAGSLFRVTLPLSRTQMGPDAEIDAPRSAAPGEGLKVLLAEDHPINQRVVQLILEPCGAAVTVVENGAQAVEAMASGAFDVVLMDMQMPVMDGLAATRAIRAREGEGQRTPIIMLSANAMDVHRREALQAGADLHVPKPITIAALLDSIGQVMAREGHHHHHH”, the “soluble on expression in E. coli” value is “soluble”.
Then “MSLETTVITADRMIDVANGKVVKQAAVIVTDNIITASGRLKDLTVPNEATRIDLGNATLMPGLMDMHVHLTSDATRHGYKRLEVSLPRAAITGVKHAKATLDAGFTTVRNVGAPGFADVALRDAINAGDVVGPRMFVAGPSLGVTGGHCDSNLLPYEYDNYSEGVADGPWEVRKKVRRNIKYGATVIKFCATGGVLSKGTKVGAQQYTFEEMKALIDEAHLRGLTVATHAHGTNGIKAAIKASVDSVEHVSLLDDEAIDLAKKNGTYFSMDIYVTEYILGEGEKAGILEESLNKERIVGKTQRENFEKAVKAGVNMVFGSDAEGHHHHHH”, with “soluble”; and “MSLEVIKHDGPGRLGVIRLEPPVQTPALAGVDFTISPFNSYFNPKEYHDYDFNLAPSIPLSYYTPDEVIEKALKRIETVDYSKFNTFYFPALKRDKYYPRFVELIEENDFDAIYIGNSKVMIKDYRGFVATLRILREKFPNAVLITDLEPFFYPLAVYLGVDAFDVRSLKIYSYEGLGFTPFSPVIWDRPNDPIEFAREMIKIIKIAIQEGKLRYLVENFLPTVMNVGILRIADKEHGDYLEKYTPVHDKTVVFISEHSISRPEVFRWRKRIEERFEPPKGIDLLLIFPCSAKKPYSRSRSHMMYRKVMKEALGEKVHRVHELVVTSPYGVVPREWEWLAKYDIVVTGHWSESEVRFAGELLAQTIEKYPDIPIVAHVEGGYREAVKYAMELVNRDVIFTAVGSSTISKESLDKLKKTLKEFDLRDAEKDYRRYRFYENVRKVFDYYFGLGAGEAVLPENAQIVGSKMLRLIVNNSQTGTFQEGVISVTPFGMQRIYDKLNSYWVEVDFDIRGDVFAAGVERADEGIRPNDIVGIVRDGRVVAVGRAVLSGEEMVRAKKGIAVRVRKRVKNKEGHHHHHH”, with “soluble”.
Then “MSLEYLLQAAGIPRSTFFYHQKRLSKPDKHAELKDAIRASFERNKHRYGYRRVLLDLRNQGWVVNHKLVYKLMCEMGLRAKIRQRRPYVSYTGTISHIADNKLDRKFTPDQPNTVFVSDVTEFRVAGRKVYLSPVMDLFDRSIVAHTVATSPSTALTTDSLSKAIAACEPEPGWMIHTDQGFQYQHASWRDLIGDNGGVQSMSRKANCYDNAVMENFFGHLKTEMYHGEVFDTVAEFNQVIDEYIQWYNTERIQQRLKGLTPMQYRNQTLEALTAEGHHHHHH”, with “not soluble”; and “MSLFGIEVEEEASQIIHILLLQYISKSYSTYSLRSNQGYNPQTLDNNQQIYNSQLSNGNQQSEITCPYCHSTQVTAGKKGFGVGKAIVGGLLLGPVGLLGGLIGSKNIEFVYNCITLSASNNTNSAQWLREQSNNAKNIVNRYLDNDFAEALVAGSALVAMADGVIEYSERERLINYFKTSQEMKHIDTNMVLSKFDCYTQKLQRDFMMGKQNYEGHHHHHH”, with “not soluble”; and “MSLFITDKRVKESATALNPSMFQGLYLQDQMLKDPTYLPIYGSSELSRLDEFHPSNYFQVNNEGFTPYLVGKGGSQSLIHSLNFAAHMDQLKGKKIVFIVSPQWFIKRGSDEQHFAPNYSALQGLDLAFNDQIDPEIKKKMMKRMLRFKAVQNDAILSELYKAMVNGQTWKVNALKPAAKVYYSMLEKKDLYYSTTESSGPKRYISQSVKDKSWSELNKLADQSGKRHSGSNDFHIDNPVYKKLKPKVPKLKGKNKGRSYAVSPEYGDFEMMLDILKDAGAEPMFVTIPVNGKWYDYTGFPKKGRTDYYKKVNKQIRAKGFQVADFSGHEYDPYFMKDTIHIGWKGWVYVDKAIDEFYKTGKVTSSEGHHHHHH”, with “not soluble”.
To “MSLGDSRTKPMEILLVEDGLVDARVTIHALRRSGLHHRLTLVRSVHEAILFMKRTGIFARAPRLDLLLLDMILPDGTGIDVLEEMSELQPDSSRVTTVVLTACEDASYRTRCDELGVYDYIQKPVSEDEFLRVVRDHKKLMIHLQQAAVSAAAGNHSEGHHHHHH” belongs “soluble”; to “MSLGEESRDPVAALRLIKHDQQANLYVLCDLHPFLGDSPTLVRLLKEIAMAEGNHRPTVVLVSHALKLPAEVQRFAARFSLSLPSEDELLGIVREEATRWSERNRGARVRTDNRTLQQVVKNLRGLSHAEARLLARNVICNDGAITQEDLPELNRTKFQLLDLEGVLSFEYDTARFAEVGGLAALKRWLGERQSAFLAGKPGDQPKGMMLVGVQGAGKSLAAKAVAGLWGLPLLRLDFACLYNKYFGETERNLREALRLAEQMAPCVLWMDEVEKGISGGDQDNGVSQRVLGTLLTWMAEREAPVFMVATANAIDRLPPELIRKGRFDELFFVDLPTPEVRAEIFRIHLQRRELEPAQFDLHLLAAASEGFSGAEIEQAVVAALYAGQARQQAVDQDLLLRELARTSPLSVLMAEKLAALRTWAKGRAVPADEGHHHHHH”, “not soluble”; to “MSLGEKASKVLITSVPKCGTHLLKQVVLGAPFYKRGKWISLRESIREQIDNCHDQTIMVGHLEYSEEIVRYLNEKGIRRLFIYRDPRDMLISYVFYVKEIAPKHELRNYFLHVLGSDEERIMKLITGFHYQEENLTYGDLTLHYQPFLPWIEDKGTLALRFEDLVSSNECKEQTISKIADYLWHGSTFDQYNKAVLKKRMLENIRPSHSGTFRKGVSGDWKNYFTAQHKSVFKEVAGQLLIDLGYEKDMDEGHHHHHH”, “soluble”.
